According to publication PMC3642127, “Distinguishable In Vitro Binding Mode of Monomeric TRBP and Dimeric PACT with siRNA” (PLoS ONE, 2013):
Numbering of substitutions follows the chain as printed.

How the values were obtained:
TRBP-WT [1] = target: T1, TRBP-WT (human, UniProt Q15633 1-366); assay: EMSA; complex 1 (monomer); EMSA: 20 mM Tris pH 7.5, 150 mM NaCl, 2 mM EDTA, 1 mM 2-mercaptoethanol, 1 mM DTT, 50 ng/ul salmon sperm DNA, 0.4 U/ul RNasin, 0.5 nM 32P-siRNA, 30 min on ice; conditions: protein: recombinant, tags: N-His6;C-myc, label: 32P guide strand
T1 sequence: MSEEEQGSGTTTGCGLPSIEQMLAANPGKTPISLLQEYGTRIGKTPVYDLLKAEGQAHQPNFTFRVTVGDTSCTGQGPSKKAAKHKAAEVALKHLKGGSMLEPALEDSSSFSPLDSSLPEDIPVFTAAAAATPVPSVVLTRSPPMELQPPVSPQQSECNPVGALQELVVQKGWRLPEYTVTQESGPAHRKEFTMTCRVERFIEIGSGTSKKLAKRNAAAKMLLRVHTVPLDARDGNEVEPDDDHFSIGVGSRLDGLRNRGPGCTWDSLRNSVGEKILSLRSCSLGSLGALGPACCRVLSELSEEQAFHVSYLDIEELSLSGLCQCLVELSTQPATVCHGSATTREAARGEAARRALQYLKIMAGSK

[2] = target: the molecule itself; assay: native gel or EMSA; purified protein 0-1,300 nM with 0.5 nM 32P-labeled siRNA, 30 min on ice; 20 mM Tris pH 7.5, 150 mM NaCl, 2 mM EDTA, 1 mM 2-mercaptoethanol, 1 mM DTT, salmon sperm DNA, RNasin; 9% polyacrylamide gel; Kd from siRNA-binding curves; complex 2 = second protein molecule joining the protein-siRNA complex 1
TRBP-WT [3] = target: T1, TRBP-WT; assay: EMSA; EMSA: 20 mM Tris pH 7.5, 150 mM NaCl, 2 mM EDTA, 1 mM 2-mercaptoethanol, 1 mM DTT, 50 ng/ul salmon sperm DNA, 0.4 U/ul RNasin, 0.5 nM 32P-siRNA, 30 min on ice; conditions: protein: recombinant, tags: N-His6;C-myc, label: 32P
[4] = target: the molecule itself; assay: SEC; Superdex 200 HR 10/30; purified protein (TRBP proteins 1,300 nM, 330-1,300 nM in Figure S3; PACT concentration not stated) pre-incubated with siLuc-36 siRNA (300 nM) 30 min on ice; 20 mM Tris pH 7.5, 150 mM NaCl, 2 mM EDTA, 1 mM 2-mercaptoethanol, 1 mM DTT; fractions blotted with anti-myc

B1: siLuc-1430 (dsRNA)
RNA 1: CGGCGGCGGGAAGUUCACCGG
RNA 2: GGUGAACUUCCCGCCGCCGUU
For B1, the Kd (TRBP-WT [1]; 2 nt 3' overhangs) was 5.7 nM.

B2: TRBP-dsRBDmt1 (natural protein, human, UniProt Q15633 1-366, looked up)
chain: T1 sequence with K80A, K81A
notes: full length human TRBP with lysines 80 and 81 in dsRBD1 replaced with alanines; source: E. coli Rosetta (DE3) pLysS, purified (Ni-NTA agarose); not shown: His6, N-terminal, kept; myc, C-terminal, kept
B2: binds [2].

B3: TRBP-dsRBDmt2 (natural protein, human, UniProt Q15633 1-366, looked up)
chain: T1 sequence with K210A, K211A
notes: full length human TRBP with lysines 210 and 211 in dsRBD2 replaced with alanines; source: E. coli Rosetta (DE3) pLysS, purified (Ni-NTA agarose); not shown: His6, N-terminal, kept; myc, C-terminal, kept
B3: binds [2].

B4: siLuc-36B (dsRNA)
RNA 1: UCUUCCAGCGGAUAGAAUGGC
RNA 2: GCCAUUCUAUCCGCUGGAAGA
With B4 the Kd (TRBP-WT [1]; blunt) was 4.5 nM.

B5: siLuc-18 (dsRNA)
RNA 1: GGCGCCGGGCCUUUCUUUAUG
RNA 2: UAAAGAAAGGCCCGGCGCCAU
For B5, the Kd (TRBP-WT [1]; 2 nt 3' overhangs) was 5.8 nM.

B6: siLuc-30 (dsRNA)
RNA 1: UCUUCAUAGAAUGGCGCCGGG
RNA 2: CGGCGCCAUUCUAUGAAGAUG
With B6 the Kd (TRBP-WT [1]; 2 nt 3' overhangs) was 6.2 nM.

B7: siLuc-48 (dsRNA)
RNA 1: CCAGCGGUUCCAUCUUCCAGC
RNA 2: UGGAAGAUGGAACCGCUGGAG
B7 gave a Kd (TRBP-WT [1]; 2 nt 3' overhangs) of 33 nM.

B8: ssRNA_Luc-36 (ssRNA)
RNA: UCUUCCAGCGGAUAGAAUGGC
B8: no binding (TRBP-WT [3]; single strand).

B9: PACT-dsRBDmt1 (natural protein, human, UniProt O75569 1-313, looked up)
chain: MSQSRHRAEAPPLEREDSGTFSLGKMITAKPGKTPIQVLHEYGMKTKNIPVYECERSDVQIHVPTFTFRVTVGDITCTGEGTSAALAKHRAAEAAINILKANASICFAVPDPLMPDPSKQPKNQLNPIGSLQELAIHHGWRLPEYTLSQEGGPAHKREYTTICRLESFMETGKGASKKQAKRNAAEKFLAKFSNISPENHISLTNVVGHSLGCTWHSLRNSPGEKINLLKRSLLSIPNTDYIQLLSEIAKEQGFNITYLDIDELSANGQYQCLAELSTSPITVCHGSGISCGNAQSDAAHNALQYLKIIAERK
notes: human PACT with lysines 84 and 85 in dsRBD1 replaced with alanines; source: E. coli Rosetta (DE3) pLysS, purified (Ni-NTA agarose); not shown: His6, N-terminal, kept; myc, C-terminal, kept
B9 was tested, and the “stoichiometry N” value [4] was 2.

B10: PACT-dsRBDmt2 (natural protein, human, UniProt O75569 1-313, looked up)
chain: B9 chain with A84K, A85K, K177A, K178A
notes: human PACT with lysines 177 and 178 in dsRBD2 replaced with alanines; source: E. coli Rosetta (DE3) pLysS, purified (Ni-NTA agarose); not shown: His6, N-terminal, kept; myc, C-terminal, kept
With B10 the “stoichiometry N” value [4] was 2.

B11: ssRNA_Luc2-153 (ssRNA)
RNA: UCGAAGUAUUCCGCGUACGUG
B11: no binding (TRBP-WT [3]; single strand).

B12: dsDNA_Luc2-153 (dsDNA)
DNA 1: TCGAAGTATTCCGCGTACGTG
DNA 2: CGTACGCGGAATACTTCGATT
B12: no binding (TRBP-WT [3]).

B13: dsDNA_Luc-36 (dsDNA)
DNA 1: TCTTCCAGCGGATAGAATGGC
DNA 2: CATTCTATCCGCTGGAAGATG
B13: no binding (TRBP-WT [3]).

B14: siLuc2-153B (dsRNA)
RNA 1: UCGAAGUAUUCCGCGUACGUG
RNA 2: CACGUACGCGGAAUACUUCGA
B14 showed a Kd (TRBP-WT [1]; blunt) of 5.1 nM.
